The data set concerns HT-1080 cells. Briefly: Adherence and morphology of HT-1080 cells on photoimmobilized hyaluronic acid, before and after hyaluronidase treatment. It is filed as cell-based. The following applies: 30 minute treatment, 50 microliters of 1000 U/ml, wells not phototreated with HA. As for the experimental part:
This example describes the ability to block adhesion of HT-1080 cells to a surface coated with hyaluronic acid (HA). The HA was functionalized with a photoactive linker and immobilized to the bottom of a well in a tissue culture plate. The material was prepared by reacting the carboxyl group of HA disaccharides with the amine group of a heterobifunctional crosslinker (4-[p-azidosalicylamido]butylamine, ASBA) via carbodiimide chemistry. The other end of the ASBA crosslinker contains a photoactive group, so this reaction renders the HA photoactive. […] Briefly, the HA was dissolved in MES buffer and reacted with EDC and Sulfo-NHS for 15 min at room temperature. The pH of the buffer was adjusted to ca. 7.0 with concentrated PBS and ASBA was added to the solution and allowed to react for 2 h at room temperature in a light-proof vial. The reaction was quenched using 50 mM Tris. Unreacted components and reaction by-products were removed via dialysis against diH2O using a 3,000 MW exclusion. The reaction product was protected from exposure to light during lyophilization. Three species of photoactive HA were prepared that varied according to the molecular weight of the HA chains: low, medium and high MW chains.
The lyophilized, photoactive HA was reconstituted in PBS and adjusted to a working concentration of 0.2 mg/ml. […]

With Hyaluronidase, the “effect of hyaluronidase on cells attached to control wells without HA (morphology, toxicity)” value is on record as “did not have a significant effect”. Moreover, where the note is “listed as HA-ase”, the “effect of hyaluronidase on cells attached to control wells without HA (morphology, toxicity)” value is given as “does not cause any gross morphological changes or have any toxic effects”.
